In patent US10801046B2, “Methods and materials for biosynthesizing multifunctional, multivariate molecules via carbon chain modification” (INVISTA NORTH AMERICA S.A.R.L., priority 2016, dated 2020):

Key:
[1] = Aminotransferase activity, N7-acetyl-1,7-diaminoheptane to N7-acetyl-7-aminoheptanal, L-alanine formation by RP-HPLC; assay type: biochemical; conditions: cell free extract, 10 mM substrate, 25° C., 4 h, against empty vector control, FIG. 51
Description: The activity of the N-terminal His-tagged aminotransferases of SEQ ID NOs: 116 (GenBank Accession No. AAQ59697.1), 119 (RefSeq Accession No. NP_417544.5), 125 (GenBank Accession No. AAGO8191.1), 126 (GenBank Accession No. AAY39893.1), 127 (GenBank Accession No. ABA81135.1), and 128 (GenBank Accession No. AEA39183.1) (see Example 6) for converting N7-acetyl-1,7-diaminoheptane to N7-acetyl-7-aminoheptanal was assayed using a buffer composed of a final concentration of 50 mM HEPES buffer (pH=7.5), 10 mM N7-acetyl-1,7-diaminoheptane, 10 mM pyruvate and 100 μM pyridoxyl 5′ phosphate. Each enzyme activity assay reaction was initiated by adding a cell free extract of the aminotransferases or the empty vector control to the assay buffer containing the N7-acetyl-1,7-diaminoheptane then incubated at 25° C. for 4 h, with shaking at 250 rpm. The formation of L-alanine was quantified via RP-HPLC.

[2] = Aminotransferase activity, reverse direction (7-aminoheptanoate to 7-oxoheptanoate), L-alanine formation by RP-HPLC; assay type: biochemical; conditions: cell free extract, 10 mM substrate, 25° C., 4 h, against empty vector control, FIG. 48
Description: (§1) A sequence encoding an N-terminal His-tag was added to the genes from Chromobacterium violaceum, Pseudomonas syringae, Rhodobacter sphaeroides, and Vibrio Fluvialis encoding the aminotransferases of SEQ ID NOs: 116 (GenBank Accession No. AAQ59697.1), 126 (GenBank Accession No. AAY39893.1), 127 (GenBank Accession No. ABA81135.1), and 128 (GenBank Accession No. AEA39183.1), respectively such that N-terminal HIS tagged aminotransferases could be produced. Each of the resulting modified genes was cloned into a pET21a expression vector under control of the T7 promoter and each expression vector was transformed into a BL21 [DE3] E. coli host. The resulting recombinant E. coli strains were cultivated at 37° C. in a 250 mL shake flask culture containing 50 mL LB media and antibiotic selection pressure, with shaking at 230 rpm. Each culture was induced overnight at 16° C. using 1 mM IPTG.
(§2) The pellet from each induced shake flask culture was harvested via centrifugation. Each pellet was resuspended and lysed via sonication. The cell debris was separated from the supernatant via centrifugation and the cell free extract was used immediately in enzyme activity assays.
Enzyme activity assays in the reverse direction (i.e., 7-aminoheptanoate to 7-oxoheptanoate) were performed in a buffer composed of a final concentration of 50 mM HEPES buffer (pH=7.5), 10 mM 7-aminoheptanoate, 10 mM pyruvate and 100 μM pyridoxyl 5′ phosphate. Each enzyme activity assay reaction was initiated by adding cell free extract of the aminotransferase gene product or the empty vector control to the assay buffer containing the 7-aminoheptanoate and incubated at 25° C. for 4 h, with shaking at 250 rpm. The formation of L-alanine from pyruvate was quantified via RP-HPLC.

[3] = Aminotransferase activity, forward direction (7-oxoheptanoate to 7-aminoheptanoate), pyruvate formation by RP-HPLC; assay type: biochemical; conditions: cell free extract, 10 mM substrate, 10 mM L-alanine, 25° C., 4 h, against empty vector control, FIG. 49
Description: as §1
The pellet from each induced shake flask culture was harvested via centrifugation. Each pellet was resuspended and lysed via sonication. […]
Enzyme activity in the forward direction (i.e., 7-oxoheptanoate to 7-aminoheptanoate) was confirmed for the aminotransferases of SEQ ID NO: 126 (GenBank Accession No. AAY39893.1), SEQ ID NO: 127 (GenBank Accession No. ABA81135.1), and SEQ ID NO: 128 (GenBank Accession No. AEA39183.1). […] The formation of pyruvate was quantified via RP-HPLC.

[4] = In vivo aminotransferase activity screening, 7-aminoheptanoate by LC-MS; assay type: cell-based, Escherichia coli; conditions: in vivo conversion of 7-oxoheptanoate to 7-aminoheptanoate, 120 aminotransferases screened
Procedure, shortened: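 Aminotransferase library expressed in E. coli T7 Express lysY/Iq co-expressing sfp, CAR_Srot and BioC, grown overnight at 37° C in rich media with 0.4 mM IPTG and 1 g/L monomethyl heptanedioate, heptanedioate or no acid. Culture supernatants analysed by LC-MS for 7-aminoheptanoate or its monomethyl ester.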

[5] = Aminotransferase activity, heptane-1,7-diamine to 7-aminoheptanal, L-alanine formation by RP-HPLC; assay type: biochemical; conditions: cell free extract, 10 mM substrate, 25° C., 4 h, against empty vector control, FIG. 50
Description: A sequence encoding an N-terminal His-tag was added to the Chromobacterium violaceum, Pseudomonas aeruginosa, Pseudomonas syringae, Rhodobacter sphaeroides, Escherichia coli, and Vibrio fluvialis genes encoding the aminotransferases of SEQ ID NOs: 116 (GenBank Accession No. AAQ59697.1), 119 (RefSeq Accession No. NP_417544.5), 125 (GenBank Accession No. AAGO8191.1), 126 (GenBank Accession No. AAY39893.1), 127 (GenBank Accession No. ABA81135.1), and 128 (GenBank Accession No. AEA39183.1), respectively such that N-terminal HIS tagged aminotransferases could be produced. The modified genes were cloned into a pET21a expression vector under the T7 promoter. Each expression vector was transformed into a BL21[DE3] E. coli host. Each resulting recombinant E. coli strain were cultivated at 37° C. in a 250 mL shake flask culture containing 50 mL LB media and antibiotic selection pressure, with shaking at 230 rpm. Each culture was induced overnight at 16° C. using 1 mM IPTG.
as §2
Enzyme activity assays in the reverse direction (i.e., heptane-1,7-diamine to 7-aminoheptanal) were performed in a buffer composed of a final concentration of 50 mM HEPES buffer (pH=7.5), 10 mM heptane-1,7-diamine, 10 mM pyruvate, and 100 μM pyridoxyl 5′ phosphate. Each enzyme activity assay reaction was initiated by adding cell free extract of the aminotransferase gene product or the empty vector control to the assay buffer containing the heptane-1,7-diamine and then incubated at 25° C. for 4 h, with shaking at 250 rpm. The formation of L-alanine was quantified via RP-HPLC.

B1: SEQ ID NO: 128: Vibrio fluvialis aminotransferase, positive control of the in vivo screen (protein, listed as Vibrio fluvialis)
chain: MNKPQSWEARAETYSLYGFTDMPSLHQRGTVVVTHGEGPYIVDVNGRRYLDANSGLWNMVAGFDHKGLIDAAKAQYERFPGYHAFFGRMSDQTVMLSEKLVEVSPFDSGRVFYTNSGSEANDTMVKMLWFLHAAEGKPQKRKILTRWNAYHGVTAVSASMTGKPYNSVFGLPLPGFVHLTCPHYWRYGEEGETEEQFVARLARELEETIQREGADTIAGFFAEPVMGAGGVIPPAKGYFQAILPILRKYDIPVISDEVICGFGRTGNTWGCVTYDFTPDAIISSKNLTAGFFPMGAVILGPELSKRLETAIEAIEEFPHGFTASGHPVGCAIALKAIDVVMNEGLAENVRRLAPRFEERLKHIAERPNIGEYRGIGFMWALEAVKDKASKTPFDGNLSVSERIANTCTDLGLICRPLGQSVVLCPPFILTEAQMDEMFDKLEKALDKVFAEVA
acceptance of N7-acetyl-1,7-diaminoheptane as substrate, forming N7-acetyl-7-aminoheptanal [1]: accepted N7-acetyl-1,7-diaminoheptane as a substrate
acceptance of 7-aminoheptanoate as substrate [2]: accepted 7-aminoheptanote as substrate
acceptance of 7-oxoheptanoate as substrate, forming 7-aminoheptanoate [3]: accepted 7-oxoheptanoate as a substrate
7-aminoheptanoate yield compared to the positive control (F2XBU9) [4]: higher 7-aminoheptanoate yields
acceptance of heptane-1,7-diamine as substrate, forming 7-aminoheptanal [5]: accepted heptane-1,7-diamine as substrate
